Laboratory results reported in patent US20110065649A1.

Tests used:
[1] = molecular target: surface nucleolin on mouse cells (mouse), P09405; experiment: cell-based or functional assay
[2] = molecular target: surface nucleolin on human cells (human), P19338; experiment: cell-based or functional assay
Sequence of surface nucleolin on human cells (human), P19338 (P19338 2-710): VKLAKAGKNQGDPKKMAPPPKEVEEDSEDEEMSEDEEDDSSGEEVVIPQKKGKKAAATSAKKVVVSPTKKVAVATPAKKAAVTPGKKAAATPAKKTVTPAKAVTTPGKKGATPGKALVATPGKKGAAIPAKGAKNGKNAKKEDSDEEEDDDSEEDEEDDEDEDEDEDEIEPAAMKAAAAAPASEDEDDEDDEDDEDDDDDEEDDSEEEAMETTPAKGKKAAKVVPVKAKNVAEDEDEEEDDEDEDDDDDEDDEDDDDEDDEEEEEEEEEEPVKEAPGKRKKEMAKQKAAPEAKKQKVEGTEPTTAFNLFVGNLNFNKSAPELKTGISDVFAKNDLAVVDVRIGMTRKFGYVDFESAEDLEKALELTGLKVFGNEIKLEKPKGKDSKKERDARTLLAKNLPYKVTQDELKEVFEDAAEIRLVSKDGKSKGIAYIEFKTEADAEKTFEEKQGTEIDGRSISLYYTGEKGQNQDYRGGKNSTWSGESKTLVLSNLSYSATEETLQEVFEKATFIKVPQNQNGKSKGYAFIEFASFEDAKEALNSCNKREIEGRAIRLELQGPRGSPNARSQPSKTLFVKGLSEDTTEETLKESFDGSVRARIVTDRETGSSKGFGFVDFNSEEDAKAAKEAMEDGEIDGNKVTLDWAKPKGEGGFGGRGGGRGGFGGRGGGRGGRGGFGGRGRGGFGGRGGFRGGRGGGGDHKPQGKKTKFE

Sequence of surface nucleolin on mouse cells (mouse), P09405 (P09405 2-707): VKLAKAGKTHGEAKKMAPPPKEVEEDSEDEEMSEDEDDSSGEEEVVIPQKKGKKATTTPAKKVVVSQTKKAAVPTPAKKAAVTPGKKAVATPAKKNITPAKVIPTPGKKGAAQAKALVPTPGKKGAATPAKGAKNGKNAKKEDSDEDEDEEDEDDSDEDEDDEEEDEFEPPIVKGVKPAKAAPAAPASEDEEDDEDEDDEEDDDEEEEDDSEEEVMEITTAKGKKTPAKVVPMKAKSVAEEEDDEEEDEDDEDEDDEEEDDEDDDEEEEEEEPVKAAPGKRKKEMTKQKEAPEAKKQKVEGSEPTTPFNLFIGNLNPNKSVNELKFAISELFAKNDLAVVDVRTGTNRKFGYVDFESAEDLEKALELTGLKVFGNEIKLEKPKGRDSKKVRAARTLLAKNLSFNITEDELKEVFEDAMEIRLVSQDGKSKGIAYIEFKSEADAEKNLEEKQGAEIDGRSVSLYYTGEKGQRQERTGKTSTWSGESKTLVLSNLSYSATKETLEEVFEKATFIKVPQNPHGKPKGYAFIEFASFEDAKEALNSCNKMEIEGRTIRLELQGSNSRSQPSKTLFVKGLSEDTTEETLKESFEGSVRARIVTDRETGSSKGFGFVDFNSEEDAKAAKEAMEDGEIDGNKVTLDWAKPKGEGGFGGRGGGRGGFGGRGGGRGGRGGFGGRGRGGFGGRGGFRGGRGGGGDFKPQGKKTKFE

- inhibition of TNF-alpha and IL-6 production by murine peritoneal macrophages stimulated by 10, 100 and 1000 ng/ml of LPS, at 10 µM of Nucant 7 [1]: > 95%
- ID50 (Inhibitory Dose at 50%) of surface nucleolin activity in HeLa P4 cells [2]: < 100 nM
- inhibition of surface nucleolin activity in HeLa P4 cells at 0.8 µM [2]: > 95%
B1: hexavalent compound Nucant 7 (peptide)
chain: KAKPGKAKPGKAKPG
peptide: KPR
modifications: not checked
